T1: 人Trop2 (human, UniProt P09758 27-323)
T1 construct: whole, on cells; also called 肿瘤相关钙信号转导器2; TACSTD2
T1 sequence (looked up): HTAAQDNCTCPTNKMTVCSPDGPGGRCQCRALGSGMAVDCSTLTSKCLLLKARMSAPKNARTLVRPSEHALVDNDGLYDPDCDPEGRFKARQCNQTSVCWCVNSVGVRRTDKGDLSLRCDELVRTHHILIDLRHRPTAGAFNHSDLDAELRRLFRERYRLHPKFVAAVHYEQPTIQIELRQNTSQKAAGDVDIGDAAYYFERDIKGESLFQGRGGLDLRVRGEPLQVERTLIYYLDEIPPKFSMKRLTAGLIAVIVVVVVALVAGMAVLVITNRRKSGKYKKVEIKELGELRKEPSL


Molecular target: T1, 人Trop2
Test: FACS on tumour cells (MDA-MB-468, HCC827, BxPC-3), Alexa647 goat anti-human IgG Fc detection

binding result	Binder
binds	抗-Trop2抗体886-36 (antibody, V domains shown, also called WBP886-36) VH: QVQLQQSGSELKKPGASVKVSCKASGYTFTNYGMNWVKQAPGQGLKWMGWINTYTGEPTYTDDFKGRFAFSLDTSVSTAYLQISSLKADDTAVYFCARGGFGSSYWYFDVWGQGSLVTVSS VL: DIQLTQSPSSLSASVGDRVSITCKASQDVSIAVAWYQQKPGKAPKLLIYSASYRYTGVPDRFSGSGSGTDFTLTISSLQPEDFAVYYCQQHYITPLTFGAGTKVEIKR
binds	886-36-MMAE (antibody, V domains shown, MC-vc-PAB-MMAE on cysteines freed by partial TCEP reduction of interchain disulfides; mostly in the Fab domain; mainly DAR4 (82.3%)) VH: QVQLQQSGSELKKPGASVKVSCKASGYTFTNYGMNWVKQAPGQGLKWMGWINTYTGEPTYTDDFKGRFAFSLDTSVSTAYLQISSLKADDTAVYFCARGGFGSSYWYFDVWGQGSLVTVSS VL: DIQLTQSPSSLSASVGDRVSITCKASQDVSIAVAWYQQKPGKAPKLLIYSASYRYTGVPDRFSGSGSGTDFTLTISSLQPEDFAVYYCQQHYITPLTFGAGTKVEIKR
